Publication PMC2815190 (Molecular immunology, 2009)

What was measured:
[1] = biological target: human Toll-like receptor 8 with the RQSYA motif deleted (human) (UniProt Q9NR97); assay: immunoblot of cell lysate
[2] = biological target: the molecule itself; assay: immunoblot of cell lysate

stoichiometry N [1] | Molecule | stoichiometry N [2]
2 | human Toll-like receptor 8 with the RQSYA motif deleted (from UniProt Q9NR97-1 27-1041) | –
– | human Toll-like receptor 8, wild type (receptor, UniProt Q9NR97-1 27-1041, looked up) EENFSRSYPCDEKKQNDSVIAECSNRRLQEVPQTVGKYVTELDLSDNFITHITNESFQGLQNLTKINLNHNPNVQHQNGNPGIQSNGLNITDGAFLNLKNLRELLLEDNQLPQIPSGLPESLTELSLIQNNIYNITKEGISRLINLKNLYLAWNCYFNKVCEKTNIEDGVFETLTNLELLSLSFNSLSHVPPKLPSSLRKLFLSNTQIKYISEEDFKGLINLTLLDLSGNCPRCFNAPFPCVPCDGGASINIDRFAFQNLTQLRYLNLSSTSLRKINAAWFKNMPHLKVLDLEFNYLVGEIASGAFLTMLPRLEILDLSFNYIKGSYPQHINISRNFSKLLSLRALHLRGYVFQELREDDFQPLMQLPNLSTINLGINFIKQIDFKLFQNFSNLEIIYLSENRISPLVKDTRQSYANSSSFQRHIRKRRSTDFEFDPHSNFYHFTRPLIKPQCAAYGKALDLSLNSIFFIGPNQFENLPDIACLNLSANSNAQVLSGTEFSAIPHVKYLDLTNNRLDFDNASALTELSDLEVLDLSYNSHYFRIAGVTHHLEFIQNFTNLKVLNLSHNNIYTLTDKYNLESKSLVELVFSGNRLDILWNDDDNRYISIFKGLKNLTRLDLSLNRLKHIPNEAFLNLPASLTELHINDNMLKFFNWTLLQQFPRLELLDLRGNKLLFLTDSLSDFTSSLRTLLLSHNRISHLPSGFLSEVSSLKHLDLSSNLLKTINKSALETKTTTKLSMLELHGNPFECTCDIGDFRRWMDEHLNVKIPRLVDVICASPGDQRGKSIVSLELTTCVSDVTAVILFFFTFFITTMVMLAALAHHLFYWDVWFIYNVCLAKVKGYRSLSTSQTFYDAYISYDTKDASVTDWVINELRYHLEESRDKNVLLCLEERDWDPGLAIIDNLMQSINQSKKTVFVLTKKYAKSWNFKTAFYLALQRLMDENMDVIIFILLEPVLQHSQYLRLRQRICKSSILQWPDNPKAEGLFWQTLRNVVLTENDSRYNNMYVDSIKQY | 2
